Test results as given in patent US8013137B2, “Modified enteropeptidase protein” (National University Corporation Hokkaido University, priority 2006, dated 2011).
Positions count from the first letter of the chain named. Numbers in names are those of the source.

How the values were obtained:
[1] = substrate: Cc1cc(=O)oc2cc(NC(=O)[C@H](CCCNC(=N)N)NC(=O)[C@H](C)NC(=O)[C@H](CCC(=O)OCc3ccccc3)NC(=O)OC(C)(C)C)ccc12; assay: purified protein, by the assay type
Experimental: (§1) Expression of the recombinant Medaka EP catalytic domain in the Escherichia coli expression system was carried out as described previously (Ogiwara et al., Proc. Natl. Acad. Sci. USA, 102:8442-8447 (2005)). The Medaka EP catalytic domain was produced as a fusion protein with an extra amino acid sequence of 50 residues at its N-terminus; the vector-derived N-terminal stretch contained a His-tag and an S-protein sequence. Harvested cells were lysed and the insoluble materials were dissolved in a solubilization buffer containing 6 M urea, 50 mM Tris.HCl (pH 7.6), and 0.5 M NaCl. […] Eluted recombinant proteins were renatured by dialysis against 50 mM Tris.HCl (pH 8.0). The fusion protein was then incubated in 50 mM Tris.HCl (pH 8.0) containing 0.5 M NaCl with trypsin immobilized on Sepharose 4B at room temperature for 1 h. The immobilized trypsin was then removed by filtration.
(§2) Site-directed mutagenesis of Medaka EP-1 was carried out to produce various mutant proteases. […] The subsequent procedures for preparation of mutant proteases were the same as for the wild-type protein described above. The active recombinant protein concentrations were determined using the active site titrant p-nitrophenyl-p′-guanidinobenzoate HCl (Sigma) using the method described previously (Chase et al., Biochem. Biophys. Res. Commun., 29:508-514 (1976)).
(§3) Enzyme activity for various 4-methylcoumaryl-7-amide (MCA)-containing peptide substrates was determined by the method of Barrett (Barrett et al., J., Biochem. J., 187:909-912 (1980)). For kinetic studies, initial velocities, extrapolated from the plot of product versus time, were transformed into double-reciprocal plots (Lineweaver et al., J. Am. Chem. Soc., 56:658-663 (1934)). The maximum velocities (Vmax) and Km and kcat values were obtained from the intercepts of these plots.

[2] = substrate: Cc1cc(=O)oc2cc(NC(=O)[C@H](CCCNC(=N)N)NC(=O)[C@H](Cc3ccccc3)NC(=O)OCc3ccccc3)ccc12; assay: purified protein, by the assay type
Experimental: as §1, §2, §3

[3] = substrate: Cc1cc(=O)oc2cc(NC(=O)[C@H](CCCNC(=N)N)NC(=O)[C@H](Cc3ccccc3)NC(=O)[C@@H]3CCCN3)ccc12; assay: purified protein, by the assay type
Experimental: as §1, §2, §3

[4] = substrate: Cc1cc(=O)oc2cc(NC(=O)[C@H](CCCNC(=N)N)NC(=O)[C@H](C)NC(=O)[C@H](CCC(=O)OCc3ccccc3)NC(=O)OC(C)(C)C)ccc12; assay: Kinetic parameters for MCA-containing peptide substrates, porcine EP; assay type: biochemical; conditions: other: Porcine
[5] = substrate: Cc1cc(=O)oc2cc(NC(=O)[C@H](CCCNC(=N)N)NC(=O)[C@H](Cc3ccccc3)NC(=O)OCc3ccccc3)ccc12; assay: as above; assay type: biochemical; conditions: other: Porcine
[6] = substrate: Cc1cc(=O)oc2cc(NC(=O)[C@H](CCCNC(=N)N)NC(=O)[C@H](Cc3ccccc3)NC(=O)[C@@H]3CCCN3)ccc12; assay: as above; assay type: biochemical; conditions: other: Porcine
[7] = substrate: Cc1cc(=O)oc2cc(NC(=O)[C@H](CCCNC(=N)N)NC(=O)[C@H](C)NC(=O)[C@H](CCC(=O)OCc3ccccc3)NC(=O)OC(C)(C)C)ccc12; assay: Kinetic parameters for MCA-containing peptide substrates, EP-1(WT); assay type: biochemical, Japanese Medaka (Oryzias latipes); conditions: other: EP-1(WT)
[8] = substrate: Cc1cc(=O)oc2cc(NC(=O)[C@H](CCCNC(=N)N)NC(=O)[C@H](Cc3ccccc3)NC(=O)OCc3ccccc3)ccc12; assay: as above; assay type: biochemical, Japanese Medaka (Oryzias latipes); conditions: other: EP-1(WT)
[9] = substrate: Cc1cc(=O)oc2cc(NC(=O)[C@H](CCCNC(=N)N)NC(=O)[C@H](Cc3ccccc3)NC(=O)[C@@H]3CCCN3)ccc12; assay: as above; assay type: biochemical, Japanese Medaka (Oryzias latipes); conditions: other: EP-1(WT)

B1: medaka EP-1 enteropeptidase serine protease domain (parent SEQ ID NO: 2), variant P193E (Oryzias latipes; P970E) (protein)
chain: CGQRQVYNSKENNGVPRVVGGVNAEKGAWPWMVSLHWRGRHGCGASLIGRDWLLTAAHCVYGKNTHLQYWSAVLGLHAQSSMNSQEVQIRQVDRIIINKNYNRRTKEADIAMMHLQQPVNFTEWVLPVCLASEDQHFPAGRRCFIAGWGRDAEGGSLPDILQEAEVPLVDQDECQRLLPEYTFTSSMLCAGYEEGGVDSCQGDSGGPLMCLEDARWTLIGVTSFGVGCGRPERPGAYARVSAFTSWIAETRRSSFSDLD
B1 was tested, and the Km ([1]; other: P193E) was 200 µM, the kcat ([1]; other: P193E) was 0.0383 s⁻¹ and the kcat/Km ([1]; other: P193E) was 200 M⁻¹ s⁻¹. The Km ([2]; other: P193E) was 200 µM, the kcat ([2]; other: P193E) was 0.0283 s⁻¹ and the kcat/Km ([2]; other: P193E) was 150 M⁻¹ s⁻¹. For the same protein, the Km ([3]; other: P193E) was 1000 µM, the kcat ([3]; other: P193E) was 0.45 s⁻¹ and the kcat/Km ([3]; other: P193E) was 450 M⁻¹ s⁻¹.

B2: medaka EP-1 enteropeptidase serine protease domain (parent SEQ ID NO: 2), variant K63R (Oryzias latipes; K840R) (protein)
chain: B1 chain with K63R, E193P
In the case of B2, the Km ([1]; other: K63R) is reported as 1200 µM, the kcat ([1]; other: K63R) is reported as 0.2 s⁻¹ and the kcat/Km ([1]; other: K63R) is reported as 167 M⁻¹ s⁻¹. The Km ([2]; other: K63R) was 100 µM, the kcat ([2]; other: K63R) was 0.0233 s⁻¹ and the kcat/Km ([2]; other: K63R) was 233 M⁻¹ s⁻¹. For the same protein, the Km ([3]; other: K63R) was 1100 µM, the kcat ([3]; other: K63R) was 0.183 s⁻¹ and the kcat/Km ([3]; other: K63R) was 167 M⁻¹ s⁻¹.

B3: porcine EP serine protease domain (Ile800 to His1034) (Sus scrofa) (protein)
chain: IVGGNDSREGAWPWVVALYYNGQLLCGASLVSRDWLVSAAHCVYGRNLEPSKWKAILGLHMTSNLTSPQIVTRLIDEIVINPHYNRRRKDSDIAMMHLEFKVNYTDYIQPICLPEENQVFPPGRICSIAGWGKVIYQGSPADILQEADVPLLSNEKCQQQMPEYNITENMMCAGYEEGGIDSCQGDSGGPLMCLENNRWLLAGVTSFGYQCALPNRPGVYARVPKFTEWIQSFLH
B3 was tested, and the Km [4] was 300 µM, the kcat [4] was 1.83 s⁻¹ and the kcat/Km [4] was 6170 M⁻¹ s⁻¹. It also gave a Km [5] of 200 µM, a kcat [5] of 0.917 s⁻¹ and a kcat/Km [5] of 4670 M⁻¹ s⁻¹. It also gave a Km [6] of 3900 µM, a kcat [6] of 5 s⁻¹ and a kcat/Km [6] of 1280 M⁻¹ s⁻¹.

B4: medaka EP-1 enteropeptidase serine protease domain (parent SEQ ID NO: 2), variant T105E (Oryzias latipes; T882E) (protein)
chain: VVGGVNAEKGAWPWMVSLHWRGRHGCGASLIGRDWLLTAAHCVYGKNTHLQYWSAVLGLHAQSSMNSQEVQIRQVDRIIINKNYNRREKEADIAMMHLQQPVNFTEWVLPVCLASEDQHFPAGRRCFIAGWGRDAEGGSLPDILQEAEVPLVDQDECQRLLPEYTFTSSMLCAGYPEGGVDSCQGDSGGPLMCLEDARWTLIGVTSFGVGCGRPERPGAYARVSAFTSWIAETRRSSFSDLD
B4 gave a Km ([1]; other: T105E) of 1300 µM, a kcat ([1]; other: T105E) of 0.183 s⁻¹ and a kcat/Km ([1]; other: T105E) of 150 M⁻¹ s⁻¹. It also gave a Km ([2]; other: T105E) of 100 µM, a kcat ([2]; other: T105E) of 0.0333 s⁻¹ and a kcat/Km ([2]; other: T105E) of 333 M⁻¹ s⁻¹. For the same protein, the Km ([3]; other: T105E) was 1300 µM, the kcat ([3]; other: T105E) was 0.267 s⁻¹ and the kcat/Km ([3]; other: T105E) was 200 M⁻¹ s⁻¹.

B5: medaka EP-1 enteropeptidase serine protease domain (parent SEQ ID NO: 2), variant E173A, SEQ ID NO: 4 (Oryzias latipes; E950A) (protein)
chain: B4 chain with E88T, E156A
B5 was tested, and the Km ([1]; other: E173A) was 1000 µM, the kcat ([1]; other: E173A) was 0.167 s⁻¹ and the kcat/Km ([1]; other: E173A) was 167 M⁻¹ s⁻¹. For the same protein, the Km ([2]; other: E173A) was 400 µM, the kcat ([2]; other: E173A) was 0.0383 s⁻¹ and the kcat/Km ([2]; other: E173A) was 100 M⁻¹ s⁻¹. For the same protein, the Km ([3]; other: E173A) was 1000 µM, the kcat ([3]; other: E173A) was 0.153 s⁻¹ and the kcat/Km ([3]; other: E173A) was 150 M⁻¹ s⁻¹.

B6: medaka EP-1 enteropeptidase serine protease domain, wild type, SEQ ID NO: 2 (Oryzias latipes) (protein)
chain: B4 chain with E88T
Protein B6 has a Km [7] of 200 µM, a kcat [7] of 0.112 s⁻¹ and a kcat/Km [7] of 567 M⁻¹ s⁻¹. The Km [8] was 100 µM, the kcat [8] was 0.0483 s⁻¹ and the kcat/Km [8] was 483 M⁻¹ s⁻¹. It also gave a Km [9] of 10000 µM, a kcat [9] of 2.33 s⁻¹ and a kcat/Km [9] of 233 M⁻¹ s⁻¹.
